Reference: the supplement of paper PMC9112550, “Optimization of the antimicrobial peptide Bac7 by deep mutational scanning” (BMC Biology, 2022)
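Further: peptides expressed intracellularly from a pBAD plasmid library in pooled LB shake-flask culture, induced with 0.3% L-arabinose, DNA abundance read by NGS, three biological replicates, DESeq2 with apeglm shrinkage.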

What follows are sequences tested on Escherichia coli TOP10 (assay: shrunken log2 fold change of peptide-encoding DNA abundance (4.5 h post-induction vs induction); higher = less antimicrobial activity (less host growth inhibition)). Details: time post-induction: 4.5 h; library: site-saturation at positions 5, 18, 19, 20.
RRIRARPPRLPRPRPRPHEFPRP was tested, and the “shrunken log2 fold change” value was 0.293.
For RRIRVRPPRLPRPRPRPSNRPRP, the “shrunken log2 fold change” value was -0.147.
With RRIRTRPPRLPRPRPRPPWKPRP the “shrunken log2 fold change” value was -0.107.
With RRIRQRPPRLPRPRPRPPNAPRP the “shrunken log2 fold change” value was 0.285.
In the case of RRIRMRPPRLPRPRPRPDARPRP, the “shrunken log2 fold change” value is reported as -0.0547.
RRIRFRPPRLPRPRPRPNSWPRP was tested, and the “shrunken log2 fold change” value was -0.0266.
RRIRERPPRLPRPRPRPWIVPRP was tested, and the “shrunken log2 fold change” value was -0.00567.
In the case of RRIRERPPRLPRPRPRPFMYPRP, the “shrunken log2 fold change” value is reported as -0.551.
With RRIRYRPPRLPRPRPRPSGDPRP the “shrunken log2 fold change” value was -0.514.
With RRIRSRPPRLPRPRPRPVMDPRP the “shrunken log2 fold change” value was -0.496.
For RRIRNRPPRLPRPRPRPWQCPRP, the “shrunken log2 fold change” value was -0.108.
In the case of RRIRRRPPRLPRPRPRPNMIPRP, the “shrunken log2 fold change” value is reported as -0.914.
For RRIRIRPPRLPRPRPRPREIPRP, the “shrunken log2 fold change” value was -0.0162.
In the case of RRIRPRPPRLPRPRPRPKKCPRP, the “shrunken log2 fold change” value is reported as -0.352.
For RRIRTRPPRLPRPRPRPTLLPRP, the “shrunken log2 fold change” value was 0.0818.
For RRIRDRPPRLPRPRPRPLYPPRP, the “shrunken log2 fold change” value was -0.277.
For RRIRYRPPRLPRPRPRPRYYPRP, the “shrunken log2 fold change” value was -2.49.
RRIRPRPPRLPRPRPRPNPDPRP was tested, and the “shrunken log2 fold change” value was 0.0105.
For RRIRTRPPRLPRPRPRPVGPPRP, the “shrunken log2 fold change” value was -0.006.
For RRIRMRPPRLPRPRPRPQSTPRP, the “shrunken log2 fold change” value was 0.21.
For RRIRKRPPRLPRPRPRPEDKPRP, the “shrunken log2 fold change” value was 0.0421.
For RRIRKRPPRLPRPRPRPAWTPRP, the “shrunken log2 fold change” value was 0.261.
RRIRHRPPRLPRPRPRPKIAPRP was tested, and the “shrunken log2 fold change” value was 0.00548.
For RRIRYRPPRLPRPRPRPYYKPRP, the “shrunken log2 fold change” value was -0.534.
For RRIRCRPPRLPRPRPRPIVDPRP, the “shrunken log2 fold change” value was 0.0181.
With RRIRTRPPRLPRPRPRPMQKPRP the “shrunken log2 fold change” value was -0.00906.
With RRIRRRPPRLPRPRPRPGNFPRP the “shrunken log2 fold change” value was 0.155.
In the case of RRIRGRPPRLPRPRPRPAELPRP, the “shrunken log2 fold change” value is reported as 0.472.
For RRIRKRPPRLPRPRPRPKLCPRP, the “shrunken log2 fold change” value was 0.515.
RRIRGRPPRLPRPRPRPSTTPRP was tested, and the “shrunken log2 fold change” value was 0.875.
RRIRTRPPRLPRPRPRPVDIPRP was tested, and the “shrunken log2 fold change” value was -0.282.
For RRIRVRPPRLPRPRPRPTKWPRP, the “shrunken log2 fold change” value was 0.0808.
RRIRLRPPRLPRPRPRPFLTPRP was tested, and the “shrunken log2 fold change” value was -0.434.
In the case of RRIRKRPPRLPRPRPRPQFDPRP, the “shrunken log2 fold change” value is reported as -0.0088.
For RRIRYRPPRLPRPRPRPNYCPRP, the “shrunken log2 fold change” value was -1.16.
For RRIRHRPPRLPRPRPRPPFCPRP, the “shrunken log2 fold change” value was 0.00537.
RRIRLRPPRLPRPRPRPNCWPRP was tested, and the “shrunken log2 fold change” value was 0.388.
RRIRHRPPRLPRPRPRPIRSPRP was tested, and the “shrunken log2 fold change” value was -0.0062.
In the case of RRIRIRPPRLPRPRPRPCCDPRP, the “shrunken log2 fold change” value is reported as -0.67.
For RRIRIRPPRLPRPRPRPTKLPRP, the “shrunken log2 fold change” value was -0.406.
In the case of RRIRTRPPRLPRPRPRPHGMPRP, the “shrunken log2 fold change” value is reported as -0.157.
For RRIRHRPPRLPRPRPRPHSMPRP, the “shrunken log2 fold change” value was -0.337.
For RRIRKRPPRLPRPRPRPALNPRP, the “shrunken log2 fold change” value was 0.589.
In the case of RRIRYRPPRLPRPRPRPGMIPRP, the “shrunken log2 fold change” value is reported as -0.252.
With RRIRTRPPRLPRPRPRPSHIPRP the “shrunken log2 fold change” value was -0.274.
In the case of RRIRRRPPRLPRPRPRPKAVPRP, the “shrunken log2 fold change” value is reported as 0.0693.
With RRIRDRPPRLPRPRPRPEDYPRP the “shrunken log2 fold change” value was 0.0219.
For RRIRIRPPRLPRPRPRPQWKPRP, the “shrunken log2 fold change” value was -0.186.
With RRIRQRPPRLPRPRPRPKFYPRP the “shrunken log2 fold change” value was -0.206.
RRIRLRPPRLPRPRPRPSDAPRP was tested, and the “shrunken log2 fold change” value was 0.0959.
For RRIRGRPPRLPRPRPRPEYMPRP, the “shrunken log2 fold change” value was 0.409.
RRIRMRPPRLPRPRPRPVANPRP was tested, and the “shrunken log2 fold change” value was 0.331.
With RRIRHRPPRLPRPRPRPHFSPRP the “shrunken log2 fold change” value was 0.0854.
RRIRHRPPRLPRPRPRPIERPRP was tested, and the “shrunken log2 fold change” value was 0.00211.
For RRIRGRPPRLPRPRPRPDADPRP, the “shrunken log2 fold change” value was 3.64.
With RRIRDRPPRLPRPRPRPFLQPRP the “shrunken log2 fold change” value was -0.091.
With RRIRLRPPRLPRPRPRPAYLPRP the “shrunken log2 fold change” value was -0.304.
For RRIRRRPPRLPRPRPRPYYGPRP, the “shrunken log2 fold change” value was -0.132.
With RRIRTRPPRLPRPRPRPGLHPRP the “shrunken log2 fold change” value was -0.102.
In the case of RRIRDRPPRLPRPRPRPTFWPRP, the “shrunken log2 fold change” value is reported as 0.588.
For RRIRPRPPRLPRPRPRPLMKPRP, the “shrunken log2 fold change” value was -0.181.
With RRIRGRPPRLPRPRPRPVFEPRP the “shrunken log2 fold change” value was 1.16.
In the case of RRIRKRPPRLPRPRPRPEIKPRP, the “shrunken log2 fold change” value is reported as 0.977.
With RRIRCRPPRLPRPRPRPHFFPRP the “shrunken log2 fold change” value was -0.633.
In the case of RRIRYRPPRLPRPRPRPACTPRP, the “shrunken log2 fold change” value is reported as -0.292.
In the case of RRIRRRPPRLPRPRPRPDYWPRP, the “shrunken log2 fold change” value is reported as 0.0192.
With RRIRGRPPRLPRPRPRPYQMPRP the “shrunken log2 fold change” value was -0.0136.
In the case of RRIRKRPPRLPRPRPRPGVFPRP, the “shrunken log2 fold change” value is reported as 0.417.
RRIRHRPPRLPRPRPRPCWQPRP was tested, and the “shrunken log2 fold change” value was -0.065.
In the case of RRIRPRPPRLPRPRPRPIQTPRP, the “shrunken log2 fold change” value is reported as -0.0617.
For RRIRRRPPRLPRPRPRPQPGPRP, the “shrunken log2 fold change” value was 0.264.
RRIRKRPPRLPRPRPRPANPPRP was tested, and the “shrunken log2 fold change” value was 0.071.
RRIRRRPPRLPRPRPRPDDIPRP was tested, and the “shrunken log2 fold change” value was -0.00879.
In the case of RRIRVRPPRLPRPRPRPCKSPRP, the “shrunken log2 fold change” value is reported as -0.214.
With RRIRYRPPRLPRPRPRPHYIPRP the “shrunken log2 fold change” value was -0.318.
